We go through one molecule from paper PMC6056074.

The test concerns the target HLA-B*44:05 (human). The test is described as follows: flow cytometry on cells; peptide receptivity of surface HLA-B on TAP-sufficient CEM cells: 100 μM peptide in medium at 26°C for 2h, then 20 μg/ml brefeldin A at 37°C for 2h; W6/32 staining, signal of cells without exogenous HLA-B subtracted; read-out (MFI with peptide - MFI without peptide)/MFI with peptide*100.

For the molecule EEFGRAFSF [… (EF10), B*44:05-restricted epitope], the percent of cell surface HLA-B that is peptide receptive is 5%.
